Drawing on publication PMC10182836, this text covers fold reduction of S1/2 on H3-tailless nucleosomes for 2 substances.

This assay deals with H3-tailless nucleosomes (nucleosomes with the first 33 residues of H3 removed) (human) (UniProt P04908).

“Pho4ΔN (AA 250–312) (from UniProt P07270 250-312) (domain or fragment)” came in with a fold reduction of S1/2 on H3-tailless nucleosomes of 3.1 fold. In turn, “Cbf1ΔN (residues 209–351) (from UniProt P17106 209-351) (domain or fragment)” had a fold reduction of S1/2 on H3-tailless nucleosomes of 1.3 fold.
